What was measured:
[1] = molecular target: T1, Fluorogenic peptide substrate ENLYFQVGGK with V at P1'
T1 chain: ENLYFQVGGK

[2] = molecular target: T2, Fluorogenic peptide substrate ENLYFQEGGK with E at P1'
T2 chain: ENLYFQEGGK

[3] = molecular target: T3, Fluorogenic peptide substrate ENLYFQIGGK with I at P1'
T3 chain: ENLYFQIGGK

[4] = molecular target: T4, Fluorogenic peptide substrate ENLYFQRGGK with R at P1'
T4 chain: ENLYFQRGGK

[5] = molecular target: T5, Fluorogenic peptide substrate ENLYFQTGGK with T at P1'
T5 chain: ENLYFQTGGK

[6] = molecular target: T6, Fluorogenic peptide substrate ENLYFQLGGK with L at P1'
T6 chain: ENLYFQLGGK

[7] = molecular target: T7, Fluorogenic peptide substrate ENLYFQKGGK with K at P1'
T7 chain: ENLYFQKGGK

[8] = molecular target: T8, Fluorogenic peptide substrate ENLYFQGGGK with G at P1'
T8 chain: ENLYFQGGGK

B1: TEV protease double mutant DM (SEQ ID NO:1 with S153N and R203G) (protein)
chain: GTHHHHHHGSGSGTGESLFKGPRDYNPISSSICHLTNESDGHTTSLYGIGFGPFIITNKHLFRRNNGTLLVQSLHGVFKVKDTTTLQQHLVDGRDMIIIRMPKDFPPFPQKLKFREPQREERICLVTTNFQTKSMSSMVSDTSCTFPSSDGIFWKHWIQTKDGQCGNPLVSTRDGFIVGIHSASNFTNTNNYFTSVPKNFMELLTNQEAQQWVSGWGLNADSVLWGGHKVFMNKPEEPFQPVKEATQLMN
- Km (Michaelis Menten kinetics, fluorogenic peptide cleavage) [1]: 45.8 µM
- Km (Michaelis Menten kinetics, fluorogenic peptide cleavage) [2]: 41 µM
- Km (Michaelis Menten kinetics, fluorogenic peptide cleavage) [3]: 45.9 µM
- Km (Michaelis Menten kinetics, fluorogenic peptide cleavage) [4]: 47.2 µM
- Km (Michaelis Menten kinetics, fluorogenic peptide cleavage) [5]: 7 µM
- Km (Michaelis Menten kinetics, fluorogenic peptide cleavage) [6]: 23.2 µM
- Km (Michaelis Menten kinetics, fluorogenic peptide cleavage) [7]: 13.8 µM
- Km (Michaelis Menten kinetics, fluorogenic peptide cleavage) [8]: 13.7 µM

B2: TEV protease variant P1-M218F (SEQ ID NO:1 with Q74L, S135G, I138T, S153N, R203G and M218F) (protein)
chain: GESLFKGPRDYNPISSSICHLTNESDGHTTSLYGIGFGPFIITNKHLFRRNNGTLLVQSLHGVFKVKDTTTLQLHLVDGRDMIIIRMPKDFPPFPQKLKFREPQREERICLVTTNFQTKSMSSMVSDTSCTFPSGDGTFWKHWIQTKDGQCGNPLVSTRDGFIVGIHSASNFTNTNNYFTSVPKNFMELLTNQEAQQWVSGWGLNADSVLWGGHKVFFNKPEEPFQPVKEATQLMN
- Km (Michaelis Menten kinetics, fluorogenic peptide cleavage) [1]: 2.5 µM
- Km (Michaelis Menten kinetics, fluorogenic peptide cleavage) [2]: 1.5 µM
- Km (Michaelis Menten kinetics, fluorogenic peptide cleavage) [3]: 5.3 µM
- Km (Michaelis Menten kinetics, fluorogenic peptide cleavage) [4]: 14.5 µM
- Km (Michaelis Menten kinetics, fluorogenic peptide cleavage) [5]: 1.1 µM
- Km (Michaelis Menten kinetics, fluorogenic peptide cleavage) [6]: 2.2 µM
- Km (Michaelis Menten kinetics, fluorogenic peptide cleavage) [7]: 7.4 µM
- Km (Michaelis Menten kinetics, fluorogenic peptide cleavage) [8]: 2.9 µM

Reference: patent publication US20260139239
